From US20190201542A1 (AbbVie / Abbott, published 2019)
Substitutions are numbered along the chain they refer to. Values belong to the binder of their own block, whether it stands above or below them.

Target: T1, human DLL3 (human, UniProt Q9NYJ7 27-492, limits assumed)
T1 construct: also called hDLL3; DLL3 protein
T1 sequence: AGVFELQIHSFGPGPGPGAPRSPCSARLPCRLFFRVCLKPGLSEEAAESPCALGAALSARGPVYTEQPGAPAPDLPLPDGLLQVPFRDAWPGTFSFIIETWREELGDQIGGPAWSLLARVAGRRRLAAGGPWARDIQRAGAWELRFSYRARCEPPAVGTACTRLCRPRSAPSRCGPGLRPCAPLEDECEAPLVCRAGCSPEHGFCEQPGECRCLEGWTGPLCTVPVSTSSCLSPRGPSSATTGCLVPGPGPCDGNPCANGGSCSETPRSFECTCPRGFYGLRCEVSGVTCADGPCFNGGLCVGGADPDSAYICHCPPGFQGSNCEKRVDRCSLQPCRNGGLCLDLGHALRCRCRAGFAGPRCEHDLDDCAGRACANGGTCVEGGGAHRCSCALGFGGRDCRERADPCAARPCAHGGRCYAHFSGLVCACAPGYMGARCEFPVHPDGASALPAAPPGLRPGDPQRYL
Assay: screen on immobilized hDLL3 or h293-hDLL3 cells
Method in brief: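 After 10 days in culture, supernatants of single-cell hybridomas from human DLL3-immunized mice were tested on cells and by solid-phase ELISA. A flow-cytometry signal above the control level counted as binding. The ELISA used DLL3-His coated at 0.5 μg/ml, HRP anti-mouse IgG and TMB, with reading at OD 450.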

- binding result: binds
B1: SC16.110 (antibody, V domains shown)
VH: EVQLQQSGPGLVRTGASVKISCKASGYSFTGYYMHWVKQSHGKSLEWIGYISCYNGATTYNQNFKGKATFIVDTSSSTAYMQFNSLTSEDSAVYYCARSDGGHAMDYWGQGTSVTVSS
VL: NIVMTQTPKFLLVSAGDRVTITCKASQSVSNDVAWYQQKPGQSPKLLIYYASNRYTGVPDRFTGSGYGTDFTFTISTVQAEDLAVYFCQQDYSSPPTFGGGTKLEIK
notes: murine mAb

- binding result: binds
B4: SC16.111 (antibody, V domains shown)
VH: EVQLQQSGPELEKPGASVKISCKASGYSFTGYNMNWVKQSNGKSLEWIGNIDPYYGGSSYKQKFEGKATLTVDKSSSTAYMQLKSLTSEDSAVYYCARGGSNFFDYWGQGTTLTVSS
VL: DIQMTQSPASLAASVGETVTITCRASENIYYSLAWYQQKQGKSPQLLIYNANSLEDGVPSRFSGSGSGTQYSMKINSMQPEDTATYFCKQTYDVPLTFGAGTKLELK
notes: murine mAb

- binding result: binds
B7: SC16.124 (antibody, V domains shown)
VH: EVQLQQSGPELVKPGASVKMSCKASGYTFTSYVMHWVKQKPGQGLEWIGYINPYNDGTKYNEKFKGKATLTSDKSSSTAYMELSSLTSEDSAVYYCARGALYYGNYLGYFDVWGAGTTVTVSS
VL: DIQMTQSPASQSASLGESVTITCLASQTIGTWLAWYQQKPGKSPQLLISAATSLADGVPSRFSGSGSGTKFSFKISSLQAEDFVSYYCQQLYSTPWTFGGGTKLEIK
notes: murine mAb

- binding result: binds
B9: SC16.129 (antibody, V domains shown)
VH: QVQLKESGPGLVAPSQSLSITCTVSGFSLTDYGVSWIRQPPGKGLEWLGVIWGGGSTYYNSALKSRLSISKDNSKSQVFLELNSLQTDDTAIYYCAKHYGHYAAYWGQGTLVTVSA
VL: B7 VL with S49Y, W96Y
notes: murine mAb

- binding result: binds
B11: SC16.117 (antibody, V domains shown)
VH: QVQLKESGPGLVAPSQSLSITCTVSGFSLTNYGVHWVRQPPGKGLEWLGVIWAGGITNYNSALMSRLSISEDNSKSQVFLKMNSLQTDDTAMYYCARNLGPYAMDYWGQGTSVTVSS
VL: DIQMNQSPSSLSASLGDTITITCHVSQNINVWLSWYQQKPGNIPKLLIQKASNLHTGVPSRFSGSGSGTGFTLTISSLQPEDIATYYCQQGQSYPFTFGSGTKLEIK
notes: murine mAb

- binding result: binds
B13: SC16.149 (antibody, V domains shown)
VH: QVQLKESGPGLVAPSQSLSITCAVSGFSLTSFGVHWVRQPPGKGLEWLGVIWAGGSTNYYSALMSRLSISIDNSKSQVFLKMNSLQTDDTAMYYCARDWEGWFAYWGQGTLVTVSA
VL: B11 VL with V25A, Q49Y, N53H, F62L, K103T
notes: murine mAb

- binding result: binds
B15: SC16.115 (antibody, V domains shown)
VH: DVKLVESGGGLVKPGGSLKLSCAASGFTFSSYTMSWVRQTPEKRLEWVATISSGGSYPYYPDSVKGRFTISRDNAKNTLYLQMSSLKSEDTAMYYCTRDVYDGYSYWGQGTTLTVSS
VL: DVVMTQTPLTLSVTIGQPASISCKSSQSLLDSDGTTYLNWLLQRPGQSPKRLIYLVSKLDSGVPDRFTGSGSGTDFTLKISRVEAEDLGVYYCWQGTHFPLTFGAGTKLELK
notes: murine mAb

- binding result: binds
B16: SC16.109 (antibody, V domains shown)
VL: QIVLTQSPAIMSASPGEKVTMTCSASSSVSYMYWYQQKPGSSPRLLIYDTSNLASGVPVRFSGSGSGTSFSLTISRMEAEDTATYYCQEWSGNPLTFGDGTKLELK
V domain: QIQLVQSGPELKKPGETVKISCKASGYTFTNYGMNWVKQAPGKGLKWMGWINTYTGEPAYADDFKGRFAFSLETSASAAYLQINNLKNEDTATFFCANMRPTRGFAYWGQGTLGTVSA
notes: murine mAb

- binding result: binds
B17: SC16.106 (antibody, V domains shown)
VH: QVQLKQSGPGLVAPSQSLFITCTVSGFSLTSYEINWVRQPPGKGLEWLGVIWTGGSTNYNSALISRLSISKDNSKSLVFLKMNSLQTDDTAIYYCVRGVYAMDYWGQGTSVTVSS
VL: DIKMTQSPSSMYASLGERVTITCKASQDINSYLSWFQQKPGKSPKTLIYRANRLVDGVPSRFSGSGSGQDYSLTISSLEYEDMGIYYCLQYDEFPFTFGSGTKLEIK
notes: murine mAb

- binding result: binds
B18: SC16.114 (antibody, V domains shown)
VH: EVQLQQSGAELVKPGASVKLSCTASGFNIKDTYIHWVKQRPEQGLEWIGRIDPANGNTKYDPKFQGKATITPDTSSNTAYLQLSSLTSEDTAVYYCARSWRNYGSSFWYFDVWGAGTTVTVSS
VL: QIVLSQSPAILSASPGEKVTMTCRASSSVSYMHWYQQKPGSSPKPWIYATSNLASGVPARFSGSGSGTSYSLTISRVEAEDAATYYCQQWSSNPYTFGGGTKLEIK
notes: murine mAb

- binding result: binds
B19: SC16.11 (antibody, V domains shown)
VH: QIQLVQSGPELKKPGETVKISCKASGYTFTDYSMHWVKQAPGKGLKWMGWINTETVEPTYADDFMGRFAFSLETSASTAFLQINNLENEDTATYFCARFGSYAMDYWGQGTSVTVSS
VL: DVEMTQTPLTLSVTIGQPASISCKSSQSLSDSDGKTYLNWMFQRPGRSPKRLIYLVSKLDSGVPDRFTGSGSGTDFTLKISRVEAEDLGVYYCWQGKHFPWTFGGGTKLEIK
notes: murine mAb

- binding result: binds
B21: SC16.134 (antibody, V domains shown)
VH: EVQLQQSGPDLVKPGASVKISCKASGYSFTGYYMHWVKQSHGKRLEWIGRVNPNNGGTNYNQKFKGKAILTVDKSSSTAYMELRSLTSEDSAVYYCARGSYDNAEGWGQGTLVTVSA
VL: DIVLTQSPASLAVSLGQRATISCKASQSVDHAGDSYMNWYQQKPGQPPKLLIYAASNLESGIPARFSGSGSGTDFTLNIHPVEEEDAATYYCQQSNEDPYTFGGGTKLEIK
notes: murine mAb

- binding result: binds
B22: SC16.116 (antibody, V domains shown)
VH: QVQLKQSGPGRVQPSQSLSITCTVSGFSLTSNGVHWVRQSPGKGLEWLGVLWSGGSTDYNAAFISRLSISKDNYKSQVFFKMNSLQANDTAIYYCARNNNRYGAMDYWGQGTSVTVSS
VL: DIVMTQSPSSLTVTAGEKVTMSCTSSQSLLTSGNQKNYLTWYQQKPGQPPKLLIYWASTRESGVPDRFTGSGSGTDFTLTISSLQAEDLAVYYCQNDYSLTFGAGTKLELK
notes: murine mAb

Second part, the binder before the results:

B2: SC16.107 (antibody, V domains shown)
VH: EVQLQQSGPELVKPGASVKMSCKASGYTFTNYVMHWVKQKPGQGLEWIGYINPYNDGTKYNEKFKGKATLTSDKSSTTAYMALSSLTSEDSAVYYCAVAYYSNWGFAYWGQGTLVTVSA
VL: DIVMTQSHKFMSTSVGDRVSITCKASQDVNTAVGWYQQKPGQSPKLLIYSASYRYTGVPDRFTGSGSGTDFTFTISSVQAEDLAVYYCQQHYSSPYTFGGGTKVEIK
notes: murine mAb
- binding result: binds

B3: SC16.139 (antibody, V domains shown)
VH: B2 VH
VL: B2 VL with V104L
notes: murine mAb
- binding result: binds

B5: SC16.10 (antibody, V domains shown)
VH: QVTLKESGPGILQSSQTLSLTCSFSGFSLSTSGMGVGWIRQPSGKGLEWLAHIWWDDVKRYNPVLKSRLTISKDTSSSQVFLKIASVDTADTATYYCARLVDDLYYFDYWGQGTTLTVSS
VL: QIVLTQSPAIMSASLGERVTMTCTASSSVSSSYLHWYQQKPGSSPKLWIYSTSNLASGVPTRFSGSGSGTSYSLTISSMEAEDAATYYCHQYHRSPFTFGSGTKLEIK
notes: murine mAb
- binding result: binds

B6: SC16.123 (antibody, V domains shown)
VH: QVALKESGPGILQPSQTLSLTCSFSGFSLSTSGMGVGWIRQPSGKGLEWLAHIWWDDVKRYNPALKSRLTISKDTSSSQVFLKIASVDTADTATYYCARMEDYGSSSYFDFWGHGTTLTVSS
VL: B5 VL with T61A, A81T
notes: murine mAb
- binding result: binds

B8: SC16.132 (antibody, V domains shown)
VH: B9 VH with I51V, S70T, E81K, L82M, I92M, H98Q, Y99R, H101Q, A103G
VL: B7 VL with S49Y
notes: murine mAb
- binding result: binds

B10: SC16.122 (antibody, V domains shown)
VH: EVQLVESGGGLVKPGGSLKLSCAASGFTFSDYYMFWVRQTPEKRLEWVATISDGGSYTYFPDSVKGRFTISRDNAQNNLYLQMSSLKSEDTAMYYCARAGTLYAMDYWGQGTSVTVSS
VL: DIVMTQSQKFMSTSVGDRVSVTCKASQNVGTNVAWYQQKPGQSPKVLIYSASYRYSGVPDRFTGSGSGTDFTLTISNVQSEDLAEFFCQQYNSYPLTFGGGTKLEIK
notes: murine mAb
- binding result: binds

B12: SC16.126 (antibody, V domains shown)
VH: B13 VH with L4M, A23T, F27S, S31N, F32Y, Y60N, I71K
VL: B11 VL with V25A, Q49Y
notes: murine mAb
- binding result: binds

B14: SC16.113 (antibody, V domains shown)
VH: B15 VH
VL: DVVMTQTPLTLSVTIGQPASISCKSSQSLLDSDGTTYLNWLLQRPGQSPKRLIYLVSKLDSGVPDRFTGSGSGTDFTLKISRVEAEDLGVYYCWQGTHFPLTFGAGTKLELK
notes: murine mAb
- binding result: binds

B20: SC16.118 (antibody, V domains shown)
VH: B21 VH with R44S, N59S, V72A, N103Y
VL: B21 VL with H31Y, A32D, M37L, N38T
notes: murine mAb
- binding result: binds

B23: SC16.121 (antibody, V domains shown)
VH: EVQLVESGGGLVQPKGSLKLSCAASGFTFNTYAMNWVRQAPGKGLEWVARIRIKSNNYATYYADSVKDRFTISRDDSQNMLYLQMNNLKTEDTAVYYCVRQGYSYDWGPWFAYWGQGTLVTVSA
VL: QIVLTQSPAIMSASPGEKVTITCSASSSVSYMHWFQQKPGTSPKLWIYSTSNLASGVPARFSGSGSGTSYSLTISRMEAEDAATYYCQQRSSYPPTFGGGTKLEIK
notes: murine mAb
- binding result: binds
